Non-standard residues stand in square brackets, D forms with d. Residues, ends and D or L forms follow the SMILES beside them. No end group written: not given here. *: point of attachment. Fmoc = O=C(OCC1c2ccccc2-c2ccccc21)*; Cha = N[C@@H](CC1CCCCC1)C(=O)O; AMC = Cc1cc(=O)oc2cc(N*)ccc12
Experiments:
mouse GalR2 = molecular target: T1, mouse GalR2 (Mus musculus, UniProt O88854); test: Calcium assay at orthologue receptor; type: cell-based
T1 sequence (O88854 1-371): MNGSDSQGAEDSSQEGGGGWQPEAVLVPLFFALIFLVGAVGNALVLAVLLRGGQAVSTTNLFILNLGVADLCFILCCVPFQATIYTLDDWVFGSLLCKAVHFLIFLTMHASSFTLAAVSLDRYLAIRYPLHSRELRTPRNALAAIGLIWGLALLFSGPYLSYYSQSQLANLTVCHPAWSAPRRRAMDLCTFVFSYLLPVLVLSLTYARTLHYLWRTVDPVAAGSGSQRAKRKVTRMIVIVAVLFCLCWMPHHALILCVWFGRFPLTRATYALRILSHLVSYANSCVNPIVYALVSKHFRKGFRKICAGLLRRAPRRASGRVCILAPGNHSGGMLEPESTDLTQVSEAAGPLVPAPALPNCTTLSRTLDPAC
Description: (§1) These species were chosen as they represent potential downstream in vivo models to be used. Within native galanin amino acid residues 1-15 are conserved across species, we would therefore expect the Gal FC fusions comprising amino acids 2 to 13 to retain GalR2 activity in these species. Calcium imaging was used to define receptor activity.

cynomolgus GalR2 = test: Calcium assay at orthologue receptor; type: cell-based, Macaca fascicularis; conditions: Table 8; Calcium assays; mean +/− standard deviation
Description: as §1

GalR1 [1] = molecular target: T2, GalR1 (Homo sapiens, UniProt P47211); test: cAMP HTRF assay, CHO GalR1 cells; type: cell-based; parameters: expressed in transfected cells; host or cells: CHO (Flp-In, pcDNA5/FRT); conditions: for Emax: read-out: GalR1 cAMP IA (%); for GalR1 activity (cAMP assay), linker variants: Table 7, highest concentration tested 10 μM
T2 sequence (P47211 1-349): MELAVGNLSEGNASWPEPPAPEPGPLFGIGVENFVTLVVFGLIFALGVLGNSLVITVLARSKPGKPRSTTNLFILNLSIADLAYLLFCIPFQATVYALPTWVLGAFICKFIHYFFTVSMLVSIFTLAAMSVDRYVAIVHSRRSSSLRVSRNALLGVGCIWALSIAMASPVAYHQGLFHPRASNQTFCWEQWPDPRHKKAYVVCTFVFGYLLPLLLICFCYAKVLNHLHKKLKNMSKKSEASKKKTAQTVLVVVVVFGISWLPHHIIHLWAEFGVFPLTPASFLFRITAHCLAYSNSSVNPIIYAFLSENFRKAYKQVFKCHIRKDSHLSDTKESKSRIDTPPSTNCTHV
Procedure: The CAMP dynamic 2 kit (Cisbio International) was used as a competitive immunoassay to measure Homogenous Time-Resolved Fluorescence (HTRF). […] Addition of detection reagent involved adding 5 μl d2 conjugated CAMP followed by 5 μl anti-CAMP cryptate conjugate. The two reagents were not pre-mixed; these were both prepared in cell lysis buffer and incubated at room temperature in the dark for one hour.

GalR1 [2] = molecular target: T2, GalR1; test: β-arrestin recruitment, PathHunter CHO-K1 GALR1 cells; type: cell-based; conditions: for Emax: CHO-K1, 1.5 h, read-out: GalR1 Beta Arrestin IA (%)
Procedure: (§2) Ligands were prepared at half log dilutions using cell plating reagent 2. 5 μl of each ligand was added to cells and plates incubated at 37° C. for 90 minutes. DiscoverX PathHunter detection kit (DiscoverX, USA) was added to cells as described my manufacturer's guidelines and plates incubated for 60 minutes at room temperature in the dark. Chemiluminescent signal was measured using the PHERAstar FS (BMG, Germany).

GALR2 [3] = molecular target: T3, GALR2 (Homo sapiens, UniProt O43603); test: Calcium assay, CHO GalR2 cells (FLIPR); conditions: for GalR2 Calcium, mean pEC50: Table 2, n ≥ 3; for GalR2 Calcium, mean pEC50 / GalR2 activity (calcium assay), linker variants / GalR2 activity (calcium assay), warhead length: mean +/− standard deviation; for GalR2 activity (calcium assay), linker variants: Table 7; for GalR2 activity (calcium assay), linker variants / GalR2 activity (calcium assay), warhead length: highest concentration tested 10 μM; for GalR2 activity (calcium assay), warhead length: Table 6
T3 sequence (O43603 1-387): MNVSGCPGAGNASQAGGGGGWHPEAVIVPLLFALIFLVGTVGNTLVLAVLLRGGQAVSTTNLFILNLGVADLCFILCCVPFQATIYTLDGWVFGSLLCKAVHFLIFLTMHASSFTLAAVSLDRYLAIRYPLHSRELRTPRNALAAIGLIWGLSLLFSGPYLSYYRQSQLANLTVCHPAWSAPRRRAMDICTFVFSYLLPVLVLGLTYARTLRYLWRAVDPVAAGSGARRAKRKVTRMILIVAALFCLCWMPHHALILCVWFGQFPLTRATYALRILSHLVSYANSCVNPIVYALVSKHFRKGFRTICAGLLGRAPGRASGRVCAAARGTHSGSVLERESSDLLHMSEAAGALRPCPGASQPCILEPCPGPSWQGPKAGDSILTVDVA
Procedure: CHO GalR2 cells were plated at 10,000 cells per well in black clear bottom plates (corning, USA) and incubated overnight at 37° C. with 5% CO2. […] Ligands were prepared at a 5× concentration and added to cells using the FLIPR (Molecular Devices, USA). Baseline was typically 20 seconds before ligand addition. […] For analysis, fluorescence was normalised to pre-addition baseline and peak fluorescence used for all quantification.
In brief, a panel of functional cell-based microtiter-plate assays were developed using recombinant GalR1 and GalR2 receptors stably expressed in CHO cells. […] Nominally this equated to 10 serial (~3fold) dilutions with highest concentrations of 10-1 μM as appropriate.
In addition to generating both potency and efficacy estimates, the latter being expressed relative to native galanin, both G-protein and non-G-Protein signalling pathways were measured.

GALR2 [4] = molecular target: T3, GALR2; test: β-arrestin recruitment, PathHunter CHO-K1 GALR2 cells; type: cell-based; conditions: for GalR2 Beta Arrestin, mean pEC50: Table 2, mean +/− standard deviation, n ≥ 3
Procedure: as §2

[5] = Table 3, mean +/− standard deviation, n ≥ 3, highest concentration 1 μM (galnon 100 μM)
[6] = maximum response at highest concentration tested (1 μM, except galnon at 100 μM), relative to galanin

For `CC(C)C[C@H](NC(=O)CNC(=O)[C@H](CC(N)=O)NC(=O)[C@H](CCCCN)NC(=O)[C@H](CC(=O)O)NC(=O)[C@H](CO)NC(=O)[C@H](Cc1ccccc1)NC(=O)[C@H](CO)NC(=O)[C@H](CCCNC(=N)N)NC(=O)[C@H](Cc1c[nH]cn1)NC(=O)[C@H](CC(N)=O)NC(=O)CNC(=O)[C@@H](NC(=O)[C@H](C)NC(=O)[C@H](Cc1c[nH]cn1)NC(=O)[C@@H]1CCCN1C(=O)CNC(=O)[C@H](CC(C)C)NC(=O)[C@H](CC(C)C)NC(=O)[C@H](Cc1ccc(O)cc1)NC(=O)CNC(=O)[C@H](C)NC(=O)[C@H](CO)NC(=O)[C@H](CC(N)=O)NC(=O)[C@H](CC(C)C)NC(=O)[C@@H](NC(=O)[C@H](Cc1c[nH]c2ccccc12)NC(=O)CN)[C@@H](C)O)C(C)C)C(=O)N[C@H](C(=O)N[C@@H](CO)C(=O)O)[C@@H](C)O` [Galanin 1-30 (human), reference compound], the EC50 (mouse GalR2) was 0.001 µM and the “Cynomolgus GalR2 activity” value (cynomolgus GalR2) was 9.6 +/− 0.2.

For `CC[C@H](C)[C@H](NC(=O)[C@H](C)NC(=O)[C@H](Cc1c[nH]cn1)NC(=O)[C@@H]1CCCN1C(=O)CNC(=O)[C@H](CC(C)C)NC(=O)[C@H](CC(C)C)NC(=O)[C@H](Cc1ccc(O)cc1)NC(=O)CNC(=O)[C@H](C)NC(=O)[C@H](CO)NC(=O)[C@H](CC(N)=O)NC(=O)[C@H](CC(C)C)NC(=O)[C@@H](NC(=O)[C@@H](N)Cc1c[nH]c2ccccc12)[C@@H](C)O)C(=O)N[C@@H](CC(=O)O)C(=O)N[C@@H](CC(N)=O)C(=O)N[C@@H](Cc1c[nH]cn1)C(=O)N[C@@H](CCCNC(=N)N)C(=O)N[C@@H](CO)C(=O)N[C@@H](Cc1ccccc1)C(=O)N[C@@H](Cc1c[nH]cn1)C(=O)N[C@@H](CC(=O)O)C(=O)N[C@@H](CCCCN)C(=O)N[C@@H](Cc1ccc(O)cc1)C(=O)NCC(=O)N[C@@H](CC(C)C)C(=O)N[C@@H](C)C(N)=O` [Galanin 2-29 (rat), reference compound], the Emax (GalR1 [1]) was 90.8% and the Emax (GalR1 [2]) was 67.2%.

Work on `Cc1cc(=O)oc2cc(NC(=O)[C@H](CCCCN)NC(=O)[C@H](CC3CCCCC3)NC(=O)OCC3c4ccccc4-c4ccccc43)ccc12` [Galnon, reference compound] (Fmoc-[Cha]-Lys-{AMC}) yielded an EC50 (GalR1 [1]) greater than 1 µM, an Emax (GalR1 [1]) of 2.9% and an EC50 (GALR2 [3]) of 20 µM. It also gave an EC50 (GALR2 [4]) of 158 µM, an EC50 (GalR1 [2]) greater than 1 µM and an Emax (GalR1 [2]) of 40.1%.

“GWTLNSAGYLLGPQPPGFSPFR-NH2 (C-terminus assumed) [M617, reference compound]” gave an Emax (GalR1 [1]) of 90.1% and an Emax (GalR1 [2]) of 99%.

In the case of “Gal1-30FC: galanin 1-30 fused to human IgG1 FC, mature chimeric protein SEQ ID NO: 23”, the “GalR1 cAMP pEC50” value (GalR1 [1]; [5]) is reported as 8.4 +/− 0.2, the “GalR1 cAMP IA (%)” value (GalR1 [1]; [6]) is reported as 93.4 +/− 11.6% and the “GalR2 Calcium, mean pEC50” value (GALR2 [3]) is reported as 6.4 +/− 0.3. For the same molecule, the “GalR2 Beta Arrestin, mean pEC50” value (GALR2 [4]) was 5.7 +/− 0.4, the “GalR1 Beta Arrestin pEC50” value (GalR1 [2]; [5]) was 5.72 +/− 0.40 and the “GalR1 Beta Arrestin IA (%)” value (GalR1 [2]; [6]) was 88.1 +/− 7.1%.

“Gal2-13FC (ALA-12): Gal2-13FC with alanine at position 12; SEQ ID NO: 61” was tested, and the “activation of GalR2 in vitro (in words)” value (GALR2 [4]; positions 12 and 13 study, FIG. 2 / Table 4) was “failed to activate GalR2”.

With “Gal2-13FC GGS2: Gal2-13 FC fusion with GGSGGS linker; SEQ ID NO: 34” the “GalR1 activity (cAMP assay), linker variants” value (shortened to “GalR1 activity (cAMP assay)”) (GalR1 [1]; mean +/− standard deviation) was 5.5 +/− 0.2 and the “GalR2 activity (calcium assay), linker variants” value (GALR2 [3]) was 6.4 +/− 0.0.

For “Gal2-13FC GGS: Gal2-13 FC fusion with GGS linker; SEQ ID NO: 33”, the “GalR1 activity (cAMP assay)” value (GalR1 [1]; mean +/− standard deviation) was 5.3 +/− 0.1 and the “GalR2 activity (calcium assay), linker variants” value (GALR2 [3]) was 6.4 +/− 0.1.

In the case of “Gal2-13FC NL: Gal2-13 FC fusion with no linker; SEQ ID NO: 36”, the “GalR1 activity (cAMP assay)” value (GalR1 [1]; mean +/− standard deviation) is reported as 5.9 +/− 0.2 and the “GalR2 activity (calcium assay), linker variants” value (GALR2 [3]) is reported as 7.3 +/− 0.1.

“Gal2-13FC PA4: Gal2-13 FC fusion with PAPAPAPA linker; SEQ ID NO: 37” was tested, and the “GalR1 activity (cAMP assay)” value (GalR1 [1]; mean +/− standard deviation) was 6.1 +/− 0.0 and the “GalR2 activity (calcium assay), linker variants” value (GALR2 [3]) was 6.8 +/− 0.1.

With “Gal2-18FC: galanin 2-18, AEAAAKEAAAKA linker, human IgG1 FC; SEQ ID NO: 26” the “GalR2 Calcium, mean pEC50” value (GALR2 [3]) was 6.7 +/− 0.1, the “GalR2 activity (calcium assay), warhead length” value (GALR2 [3]) was 6.7 +/− 0.1 and the “GalR2 Beta Arrestin, mean pEC50” value (GALR2 [4]) was 7.3 +/− 0.1.

For “Gal2-24FC: galanin 2-24, AEAAAKEAAAKA linker, human IgG1 FC; SEQ ID NO: 27”, the “GalR2 Calcium, mean pEC50” value (GALR2 [3]) was 6.9 +/− 0.3, the “GalR2 activity (calcium assay), warhead length” value (GALR2 [3]) was 6.9 +/− 0.3 and the “GalR2 Beta Arrestin, mean pEC50” value (GALR2 [4]) was 7.6 +/− 0.0.

Work on “RGRGNWTLNSAGYLLGPVLPPPALALA-NH2 (C-terminus assumed) [M1145, reference compound]” yielded an Emax (GalR1 [1]) of 86.7% and an Emax (GalR1 [2]) of 24.5%.

Source: patent US20260209301A1, “Galanin-2 Receptor Agonists” (LIFEARC, priority 2022, published 2026)
